How the values were obtained:
[1] = target: T. thermophilus RNAP core enzyme (T. thermophilus) (UniProt Q5SHR6); assay: SPR
[2] = target: T. thermophilus RNAP σ^A holoenzyme (T. thermophilus HB8) (UniProt Q5SHR6); assay: SPR

Thermus thermophilus bacteriophage P23–45 gp76 (natural protein)
Kd [1]: 8.4 µM | Kd [2]: 0.12 µM
